Laboratory results taken from US20220267464A1 (Hoffmann-La Roche, published 2022).
Substitutions are numbered along the chain they refer to. Names may count otherwise.

T1: human CEA (CEACAM5), form in the assay not stated (human, UniProt P06731 35-685, limits assumed)
T1 sequence: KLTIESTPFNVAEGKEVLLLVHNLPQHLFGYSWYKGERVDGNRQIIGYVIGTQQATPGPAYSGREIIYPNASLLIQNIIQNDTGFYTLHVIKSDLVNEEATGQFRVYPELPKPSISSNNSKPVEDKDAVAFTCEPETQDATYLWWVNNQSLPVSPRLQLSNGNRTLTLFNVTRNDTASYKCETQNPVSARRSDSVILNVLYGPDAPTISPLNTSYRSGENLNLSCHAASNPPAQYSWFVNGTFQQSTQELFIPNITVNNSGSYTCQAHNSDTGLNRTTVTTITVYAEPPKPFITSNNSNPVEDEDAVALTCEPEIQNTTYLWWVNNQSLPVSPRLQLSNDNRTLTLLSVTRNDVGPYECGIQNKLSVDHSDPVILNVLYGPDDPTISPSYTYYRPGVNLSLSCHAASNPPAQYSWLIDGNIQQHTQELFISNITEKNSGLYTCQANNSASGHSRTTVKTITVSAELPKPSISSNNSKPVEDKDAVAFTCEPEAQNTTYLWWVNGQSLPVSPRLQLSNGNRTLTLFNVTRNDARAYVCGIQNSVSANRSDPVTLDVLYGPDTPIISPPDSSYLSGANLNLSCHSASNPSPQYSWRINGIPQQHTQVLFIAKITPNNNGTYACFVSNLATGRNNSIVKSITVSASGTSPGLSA

T2: hu N(A2-B2)A-avi-His (human, biotin on the avi tag where used biotinylated)
T2 construct: chimeric soluble antigen; also called hu N(A2-B2)A-avi-His B; human CEA (A2 domain)
T2 chain: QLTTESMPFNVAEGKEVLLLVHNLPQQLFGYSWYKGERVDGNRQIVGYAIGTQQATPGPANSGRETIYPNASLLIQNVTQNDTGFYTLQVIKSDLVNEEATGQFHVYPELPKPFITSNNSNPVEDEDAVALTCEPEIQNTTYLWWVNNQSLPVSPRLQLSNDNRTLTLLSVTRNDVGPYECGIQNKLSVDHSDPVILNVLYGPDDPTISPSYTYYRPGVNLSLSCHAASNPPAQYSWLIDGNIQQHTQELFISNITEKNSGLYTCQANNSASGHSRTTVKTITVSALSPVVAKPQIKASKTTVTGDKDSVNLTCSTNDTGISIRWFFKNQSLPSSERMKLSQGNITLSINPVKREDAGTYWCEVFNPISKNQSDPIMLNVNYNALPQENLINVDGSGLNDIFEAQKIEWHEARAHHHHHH

T3: NA(B2)A-avi-His (human, biotin on the avi tag)
T3 construct: chimeric soluble control antigen without the CEACAM5 A2 domain
T3 chain: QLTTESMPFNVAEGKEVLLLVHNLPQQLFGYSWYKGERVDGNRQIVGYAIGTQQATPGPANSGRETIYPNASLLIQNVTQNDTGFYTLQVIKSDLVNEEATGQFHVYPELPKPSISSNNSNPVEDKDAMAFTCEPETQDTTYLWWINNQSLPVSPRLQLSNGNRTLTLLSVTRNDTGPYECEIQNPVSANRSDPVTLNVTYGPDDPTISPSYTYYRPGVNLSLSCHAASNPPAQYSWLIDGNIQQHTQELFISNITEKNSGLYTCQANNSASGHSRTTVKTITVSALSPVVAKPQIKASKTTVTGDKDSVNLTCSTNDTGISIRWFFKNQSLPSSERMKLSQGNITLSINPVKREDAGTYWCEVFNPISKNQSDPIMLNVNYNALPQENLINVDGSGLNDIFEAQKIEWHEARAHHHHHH

B1: A5B7 parental murine anti-CEA antibody (antibody, V domains shown)
VH: EVKLVESGGGLVQPGGSLRLSCATSGFTFTDYYMNWVRQPPGKALEWLGFIGNKANGYTTEYSASVKGRFTISRDKSQSILYLQMNTLRAEDSATYYCTRDRGLRFYFDYWGQGTTLTVSS
VL: QTVLSQSPAILSASPGEKVTMTCRASSSVTYIHWYQQKPGSSPKSWIYATSNLASGVPARFSGSGSGTSYSLTISRVEAEDAATYYCQHWSSKPPTFGGGTKLEIK
notes: also called parental chimeric antibody
B2: A5H1EL1D Fab (phagemid-derived) (Fab, V domains shown)
VH: EVQLLESGGGLVQPGGSLRLSCAASGFTFTDYYMNWVRQAPGKGLEWLGFIGNKANAYTTEYSASVKGRFTISRDKSKNTLYLQMNSLRAEDTATYYCTRDRGLRFYFDYWGQGTTVTVSS
VL: EIVLTQSPATLSLSPGERATLSCRASSSVTYIHWYQQKPGQAPRSWIYATSNLASGIPARFSGSGSGTDFTLTISSLEPEDFAVYYCQHWSSKPPTFGQGTKLEIK
notes: Flag tag; also called parental humanized clone A5H1EL1D
B3: P006.038 Fab (Fab, V domains shown)
VH: B2 VH with L104I, Y107G
VL: B2 VL with K93V
notes: Fab from E. coli (supernatant or IMAC-purified); Flag tag; also called CEA (P006.038)
B4: A5H1EL1D humanized anti-CEA antibody (format in the assay not stated) (antibody, V domains shown)
VH: B2 VH
VL: B2 VL
notes: also called huA5B7; 3-23A5-1E / A5-L1D
B5: P005.102 Fab (Fab, V domains shown)
VH: B2 VH with L104I, Y107Q
VL: B2 VL with P94S
notes: Fab from E. coli (supernatant or IMAC-purified); Flag tag; also called CEA (P005.102)
B6: P005.097 Fab (Fab, V domains shown)
VH: B2 VH with Y107S
VL: B2 VL with K93Q
notes: Fab from E. coli (supernatant or IMAC-purified); Flag tag; also called CEA (P005.097)
B7: P002.139 Fab (Fab, V domains shown)
VH: B2 VH with T28Y, Y33A, F50V, G52S
VL: B2 VL with R24H
notes: Fab from E. coli (supernatant or IMAC-purified); Flag tag; also called CEA (P002.139)
B8: P001.177 Fab (Fab, V domains shown)
VH: B2 VH with T28Y, G52S
VL: B2 VL
notes: Fab from E. coli (supernatant or IMAC-purified); Flag tag; also called CEA (P001.177)
B9: P005.103 Fab (Fab, V domains shown)
VH: B2 VH with L104I
VL: B2 VL with K93I, P94S
notes: Fab from E. coli (supernatant or IMAC-purified); Flag tag; also called CEA (P005.103)

Assays:
[1] = molecular target: T1, human CEA (CEACAM5), form in the assay …; assay: SPR
[2] = molecular target: T2, hu N(A2-B2)A-avi-His; assay: SPR (ProteOn XPR36), purified Fab, biotinylated antigen on NLC chip
Experimental: Affinity (KD) of purified Fab fragments was measured by surface plasmon resonance using a Proteon XPR36 machine using the same setup as described before.
About 2000, 1000, 500, and 250 RU of biotinylated N(A2B2)A-avi-His were immobilized on 4 channels of a Streptavidin-coated NLC chip in vertical orientation. As a control for non-specific binding, 2000 RU of biotinylated NA(B2)A-avi-His protein was immobilized on channel 5. For the determination of the affinity (KD) of the purified clones, injection direction was changed to horizontal orientation. Two-fold dilution series of purified Fab fragments (varying concentration ranges between 100 and 3 nM) were injected simultaneously at 100 μl/min along separate channels 1-5, with association times of 100 s, and dissociation times of 1200 s. Buffer (PBST) was injected along the sixth channel to provide an “in-line” blank for referencing. Regeneration was performed with 10 mM glycine pH 1.5 for 35 s at 50 μl/min (vertical orientation).
Association rate constants (kon) and dissociation rate constants (koff) were calculated using a simple one-to-one Langmuir binding model in ProteOn Manager v3.1 software by simultaneously fitting the association and dissociation sensorgrams. The equilibrium dissociation constant (KD) was calculated as the ratio koff/kon.

[3] = molecular target: T2, hu N(A2-B2)A-avi-His; assay: SPR (ProteOn XPR36), Fab in bacterial supernatant, biotinylated antigen on NLC chip
Description: (§1) For this experiment, about 2000, 1000, and 500 RU of biotinylated N(A2B2)A-avi-His were immobilized on 3 channels using a Streptavidin-coated NLC chip in vertical orientation. As a control for non-specific binding, 2000 RU of biotinylated NA(B2)A-avi-His protein was immobilized on channel 4. For the off-rate analysis of the identified ELISA-positive clones, injection direction was changed to horizontal orientation. Before injection, each Fab-containing bacterial supernatant was filtered and 3-fold diluted with PBS. The association time was 100 s at 100 μl/minute and dissociation times were either 600 or 1200 s. Bacterial supernatant without Fab fragment was used for referencing. Regeneration was performed with 10 mM glycine pH 1.5 for 35 s at 50 μl/min (vertical orientation).
(§2) Dissociation rate constants (koff) were calculated using a simple one-to-one Langmuir binding model in ProteOn Manager v3.1 software by simultaneously fitting the sensorgrams. […] Shortlisted clones were re-evaluated in an additional SPR experiments under the same conditions. […] Bacterial supernatant without Fab fragment was used for referencing.

[4] = molecular target: T3, NA(B2)A-avi-His; assay: SPR (ProteOn), Fab in bacterial supernatant, 2000 RU antigen
Description: as §1, §2

Row | Binder | Kd [1] [nM] | Kd [2] [nM] | koff [2] [s⁻¹] | kon [2] [M⁻¹ s⁻¹] | koff [3] [s⁻¹] | binding result [4]
1 | B1 | ~0.8 |  |  |  |  | 
2 | B2 |  | 2.3 | 0.000248 | 108000 | 0.00031 | 
3 | B3 |  | 0.25 | 5.78e-05 | 225000 | 7.41e-05 | no binding
4 | B4 | ~2.5 |  |  |  |  | 
5 | B5 |  | 0.29 | 3.92e-05 | 134000 | 4.24e-05 | no binding
6 | B6 |  | 0.91 | 8.54e-05 | 94000 | 8.87e-05 | no binding
7 | B7 |  | 0.63 | 6.53e-05 | 105000 | 6.47e-05 | no binding
8 | B8 |  | 0.29 | 7.85e-05 | 267000 | 9.81e-05 | no binding
9 | B9 |  | 0.5 | 4.99e-05 | 100000 | 5.37e-05 | no binding
